Patent US9605064B2, “Methods and compositions for treatment of skin disorders” (AbbVie Biotechnology Ltd, priority 2006, dated 2017)
Values joined by “and” are separate entries in the source; they are usually repeats but may differ in a detail not shown here. Equal values may be shown once.

Test system: patients with moderate to severe chronic plaque psoriasis
Test: Adverse events, Phase II trial with 48-week extension
Conditions: for patients with serious adverse events (SAEs): 60-week trial
[1] = Week 0-12, 40 mg weekly (N = 50)
[2] = Week 0-60, 40 mg weekly (N = 50)
[3] = Week 0-60, Placebo/Adalimumab 40 mg eow (N = 52)
[4] = Week 12-60, 40 mg weekly (n = 50)
[5] = Week 12-60, Placebo/Adalimumab 40 mg eow + Adalimumab 40 mg eow (n = 92)
[6] = Weeks 0-12, 40 mg weekly (n = 50)
[7] = Weeks 0-12, 40 mg weekly, prior biologic use (n = 9)
[8] = Weeks 12-60, 40 mg weekly (n = 50)
[9] = Weeks 12-60, 40 mg weekly, no prior use (n = 24)
[10] = Weeks 12-60, 40 mg weekly, prior biologic use (n = 7)
[11] = Weeks 12-60, 40 mg weekly, prior systemic use (n = 21)
[12] = Weeks 12-60, Placebo/Adalimumab 40 mg eow + Adalimumab 40 mg eow (n = 92)
[13] = Weeks 12-60, placebo/adalimumab 40 mg eow + adalimumab 40 mg eow, no prior use (n = 47)
[14] = Weeks 12-60, placebo/adalimumab 40 mg eow + adalimumab 40 mg eow, prior biologic use (n = 16)
[15] = Weeks 12-60, placebo/adalimumab 40 mg eow + adalimumab 40 mg eow, prior systemic use (n = 35)
[16] = all patients, Weeks 0-12, 40 mg eow (N = 45)
[17] = all patients, Weeks 0-12, 40 mg weekly (N = 50)
[18] = all patients, Weeks 12-60, 40 mg weekly (n = 50)
[19] = all patients, Weeks 12-60, placebo/adalimumab 40 mg eow + adalimumab 40 mg eow (N = 92)
[20] = baseline PASI ≧10 and DLQI >10, Weeks 0-12, 40 mg eow (N = 26)
[21] = baseline PASI ≧10 and DLQI >10, Weeks 0-12, 40 mg weekly (N = 23)
[22] = baseline PASI ≧10 and DLQI >10, Weeks 12-60, 40 mg weekly (N = 23)
[23] = baseline PASI ≧10 and DLQI >10, Weeks 12-60, placebo/adalimumab 40 mg eow + adalimumab 40 mg eow (N = 41)
[24] = weeks 12-60, 40 mg weekly (N = 50)
[25] = weeks 12-60, placebo/adalimumab 40 mg eow + adalimumab 40 mg eow (N = 92)

Text: The study was a randomized, double-blind, placebo-controlled, multi-center clinical trial, wherein patients were randomized to one of three treatment groups. The three treatment groups consisted of the following: • 1. […] Inclusion criteria included a diagnosis of moderate to severe chronic plaque psoriasis≧1 year prior to entry, a psoriasis-affected body surface area (BSA)>5%, and no previous use of TNF-antagonist therapy.
Inclusion criteria for the study included the following parameters: ≧18 years of age; moderate to severe chronic plaque psoriasis≧1 year; and affected BSA≧5%. […] Efficacy outcome measures included PASI and PGA.
Inclusion criteria included patients being 18 years of age; having moderate to severe chronic plaque psoriasis≧1 year; and affected BSA≧5%. Exclusion criteria included prior TNF-antagonist therapy and discontinuation of other systemic psoriasis therapies. Efficacy outcome measures which were used included PASI, PGA, DLQI.
Inclusion criteria included: • ≧18 years of age • Moderate to severe chronic plaque psoriasis 1 year • Affected BSA≧5% Exclusion criteria included: • Prior TNF-antagonist therapy • Discontinuation of other systemic psoriasis therapies Efficacy outcome was measured using PASI and DLQI responses/scores.

## Adalimumab: a human anti-TNF mAb, described in U.S. Pat. No. 6,090,382 as D2E7 (HUMIRA, Abbott Laboratories)
Week 0-12, 40 mg eow (N = 45)
  Withdrawals: Abnormal lab value, number of patients: 0
  Withdrawals: Adverse events, number of patients: 2
  Withdrawals: Lack of Efficacy, number of patients: 0
[1]
  Withdrawals: Abnormal lab value, number of patients: 1
  Withdrawals: Adverse events, number of patients: 2
  Withdrawals: Lack of Efficacy, number of patients: 0
Week 0-60, 40 mg eow (N = 45)
  Withdrawals: Abnormal lab value, number of patients: 0
  Withdrawals: Adverse events, number of patients: 4
  Withdrawals: Lack of Efficacy, number of patients: 6
[2]
  Withdrawals: Abnormal lab value, number of patients: 1
  Withdrawals: Adverse events, number of patients: 8
  Withdrawals: Lack of Efficacy, number of patients: 4
[3]
  Withdrawals: Abnormal lab value, number of patients: 0
  Withdrawals: Adverse events, number of patients: 2
  Withdrawals: Lack of Efficacy, number of patients: 6
[4]
  Back pain, number of patients: 4 n
  Back pain, percent of patients: (8.0) %
  Blood creatine phosphokinase increased, number of patients: 2 n
  Blood creatine phosphokinase increased, percent of patients: (4.0) %
  Blood triglycerides increased, number of patients: 2 n
  Blood triglycerides increased, percent of patients: (4.0) %
  Headache, number of patients: 6 n
  Headache, percent of patients: (12.0) %
  Muscle strain, number of patients: 4 n
  Muscle strain, percent of patients: (8.0) %
  Nasopharyngitis, number of patients: 6 n
  Nasopharyngitis, percent of patients: (12.0) %
  Skin papilloma, number of patients: 5 n
  Skin papilloma, percent of patients: (10.0) %
  Upper Respiratory Infection, Not otherwise specified, number of patients: 7 n
  Upper Respiratory Infection, Not otherwise specified, percent of patients: (14.0) %
  Upper Respiratory Infection, Viral not otherwise specified, number of patients: 3 n
  Upper Respiratory Infection, Viral not otherwise specified, percent of patients: (6.0) %
  Urticaria, number of patients: 3 n
  Urticaria, percent of patients: (6.0) %
[5]
  Back pain: 4 (4.3) n (%)
  Blood creatine phosphokinase increased: 5 (5.4) n (%)
  Blood triglycerides increased: 7 (7.6) n (%)
  Headache: 3 (3.3) n (%)
  Muscle strain: 1 (1.1) n (%)
  Nasopharyngitis: 13 (14.1) n (%)
  Skin papilloma: 3 (3.3) n (%)
  Upper Respiratory Infection, Viral not otherwise specified: 4 (4.3) n (%)
  Urticaria: 0 (0.0) n (%)
Weeks 0-12, 40 mg eow (n = 45)
  Adverse Events Leading to Withdrawal: 2 (4.4) n (%)
  Any Adverse Event: 28 (62.2) n (%)
  Serious Adverse Events: 1 (2.2 n (%)
[6]
  Adverse Events Leading to Withdrawal: 3 (6.0) n (%)
  Any Adverse Event: 39 (78.0) n (%)
  Serious Adverse Events: 4 (8.0) n (%)
[7]
  AE's→Withdrawal: 2 (22) n (%)
  Any AE: 6 (67) n (%)
  Serious AE: 2 (22) n (%)
[8]
  Adverse Events Leading to Withdrawal: 5 (10.0) n (%)
  Any Adverse Event: 39 (78.0) n (%)
  Serious Adverse Events: 7 (14.0) n (%)
[9]
  AE's→Withdrawal: (8) %
  AE's→Withdrawal, number of patients: 2
  Any AE: (79) %
  Any AE, number of patients: 19
  Serious AE: (17) %
  Serious AE, number of patients: 4
[10]
  AE's→Withdrawal: (0) %
  AE's→Withdrawal, number of patients: 0
  Any AE: (86) %
  Any AE, number of patients: 6
  Serious AE: (0) %
  Serious AE, number of patients: 0
[11]
  AE's→Withdrawal: (14) %
  AE's→Withdrawal, number of patients: 3
  Any AE: (81) %
  Any AE, number of patients: 17
  Serious AE: (10) %
  Serious AE, number of patients: 2
[12]
  Adverse Events Leading to Withdrawal: 3 (3.3) n (%)
  Any Adverse Event: 72 (78.3) n (%)
  Serious Adverse Events: 2 (2.2) n (%)
[13]
  AE's→Withdrawal: (2) %
  AE's→Withdrawal, number of patients: 1
  Any AE: (79) %
  Any AE, number of patients: 37
  Serious AE: (0) %
  Serious AE, number of patients: 0
[14]
  AE's→Withdrawal: (6) %
  AE's→Withdrawal, number of patients: 1
  Any AE: (75) %
  Any AE, number of patients: 12
  Serious AE: (13) %
  Serious AE, number of patients: 2
[15]
  AE's→Withdrawal: (6) %
  AE's→Withdrawal, number of patients: 2
  Any AE: (80) %
  Any AE, number of patients: 28
  Serious AE: (6) %
  Serious AE, number of patients: 2
Weeks 12-60, range across treatment groups
  patients who withdrew due to adverse events: 3-10%
[16]
  AEs leading to withdrawal: 2 (4) n (%) and 2 (4.4) n (%)
  Any AE: 28 (62) n (%) and 28 (62.2) n (%)
  Serious AEs: 1 (2) n (%) and 1 (2.2) n (%)
[17]
  AEs leading to withdrawal: 3 (6) n (%)
  Any AE: 39 (78) n (%)
  Serious AEs: 4 (8) n (%)
[18]
  AEs leading to withdrawal: 5 (10) n (%)
  Any AE: 39 (78) n (%)
  Serious AEs: 7 (14) n (%)
[19]
  AEs leading to withdrawal: 3 (3) n (%) and 3 (3.3) n (%)
  Any AE: 72 (78) n (%) and 72 (87.3) n (%)
  Serious AEs: 2 (2) n (%) and 2 (2.2) n (%)
[20]
  AEs leading to withdrawal: 0 (0) n (%)
  Any AE: 16 (62) n (%)
  Serious AEs: 0 (0) n (%)
[21]
  AEs leading to withdrawal: 1 (4) n (%)
  Any AE: 19 (83) n (%)
  Serious AEs: 2 (9) n (%)
[22]
  AEs leading to withdrawal: 0 (0) n (%)
  Any AE: 11 (48) n (%)
  Serious AEs: 0 (0) n (%)
[23]
  AEs leading to withdrawal: 2 (5) n (%)
  Any AE: 23 (56) n (%)
  Serious AEs: 1 (2) n (%)
Dosage escalation group
  Serious Adverse Events: no serious adverse events were observed
  withdrew from the study due to adverse events: two others
Dosage escalation group, listed as adalimumab
  Serious Adverse Events: One patient
Patients with PASI 75-99 and DLQI=0
  patients who had adverse events: 80%
Patients with PASI 75-99 and DLQI>0
  patients who had adverse events: 91%
Patients with PASI 100 and DLQI=0
  patients who had adverse events: 91%
Patients with PASI 100 and DLQI>0
  patients who had adverse events: 50%
prior-biologic patients
  patients with serious adverse events (SAEs): 4 patients
prior-systemic patients
  patients with serious adverse events (SAEs): 7 patients
[24]
  Back pain, number of patients: 4
  Back pain, percentage (in parentheses): (8.0)
  Blood CPK increased, number of patients: 2
  Blood CPK increased, percentage (in parentheses): (4.0)
  Blood TG increased, number of patients: 2
  Blood TG increased, percentage (in parentheses): (4.0)
  Headache, number of patients: 6
  Headache, percentage (in parentheses): (12.0)
  Muscle strain, number of patients: 4
  Muscle strain, percentage (in parentheses): (8.0)
  Nasopharyngitis, number of patients: 6
  Nasopharyngitis, percentage (in parentheses): (12.0)
  Skin papilloma, number of patients: 5
  Skin papilloma, percentage (in parentheses): (10.0)
  URI, NOS, number of patients: 7
  URI, NOS, percentage (in parentheses): (14.0)
  URI, viral NOS, number of patients: 3
  URI, viral NOS, percentage (in parentheses): (6.0)
  Urticari, number of patients: 3
  Urticari, percentage (in parentheses): (6.0)
[25]
  Back pain, number (percentage in parentheses): 4 (4.3)
  Blood CPK increased, number (percentage in parentheses): 5 (5.4)
  Blood TG increased, number (percentage in parentheses): 7 (7.6)
  Headache, number (percentage in parentheses): 3 (3.3)
  Muscle strain, number (percentage in parentheses): 1 (1.1)
  Nasopharyngitis, number (percentage in parentheses): 13 (14.1)
  Skin papilloma, number (percentage in parentheses): 3 (3.3)
  URI, NOS, number (percentage in parentheses): 9 (9.8)
  URI, viral NOS, number (percentage in parentheses): 4 (4.3)
  Urticari, number (percentage in parentheses): 0 (0.0)
Without recent prior systemic or biologic therapy
  patients with serious adverse events (SAEs): 5 patients
